Test results published in patent publication US20190077849A1.
“And” between values parts separate entries of the source, which are not always exact repeats. Identical values can stand only once. Like-named read-outs stand apart in the source and are kept apart here.

Columns and labels:
Assay in all cases: cell-based or functional assay
[1] = target: HIV-1 Env of TH966.8.SG3 pseudovirus (clade AE) (HIV-1)
[2] = target: HIV-1 Env of CNE31.SG3 pseudovirus (clade C) (HIV-1)
[3] = target: HIV-1 Env of PVO.04.SG3 pseudovirus (clade B) (HIV-1)
[4] = target: HIV-1 Env of ZM106.9.SG3 pseudovirus (clade C) (HIV-1)
[5] = target: HIV-1 Env of KER2008.12.SG3 pseudovirus (clade A) (HIV-1)
[6] = target: HIV-1 Env of TH966.8.SG3 pseudovirus (clade AE) (HIV-1); remark: listed apart in the source
[7] = target: HIV-1 Env of 6101.10.SG3 pseudovirus (clade B) (HIV-1)
[8] = target: HIV-1 Env of CNE31.SG3 pseudovirus (clade C) (HIV-1); remark: listed apart in the source
[9] = target: HIV-1 Env of YU2.DG.SG3 pseudovirus (clade B) (HIV-1) (UniProt P35961)
[10] = target: HIV-1 Env of ZM215.8.SG3 pseudovirus (clade C) (HIV-1)
[11] = target: HIV-1 Env of 6095.V1.C10.SG3 pseudovirus (clade ACD) (HIV-1)
[12] = target: HIV-1 Env of PVO.04.SG3 pseudovirus (clade B) (HIV-1); remark: listed apart in the source
[13] = target: HIV-1 Env of ZM106.9.SG3 pseudovirus (clade C) (HIV-1); remark: listed apart in the source
[14] = target: HIV-1 Env of KER2008.12.SG3 pseudovirus (clade A) (HIV-1); remark: listed apart in the source
[15] = target: HIV-1 Env of 6101.10.SG3 pseudovirus (clade B) (HIV-1); remark: listed apart in the source
[16] = target: HIV-1 Env of YU2.DG.SG3 pseudovirus (clade B) (HIV-1) (UniProt P35961); remark: listed apart in the source
[17] = target: HIV-1 Env of ZM215.8.SG3 pseudovirus (clade C) (HIV-1); remark: listed apart in the source
[18] = target: HIV-1 Env of 6095.V1.C10.SG3 pseudovirus (clade ACD) (HIV-1); remark: listed apart in the source

Chain of 10E8v4 S100cW (antibody) (VH): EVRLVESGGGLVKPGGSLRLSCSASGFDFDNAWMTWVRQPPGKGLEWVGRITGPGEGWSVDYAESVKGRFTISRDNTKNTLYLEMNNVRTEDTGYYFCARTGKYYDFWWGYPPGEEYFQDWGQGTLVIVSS
Chain of 10E8v4 S100cW (antibody) (VL): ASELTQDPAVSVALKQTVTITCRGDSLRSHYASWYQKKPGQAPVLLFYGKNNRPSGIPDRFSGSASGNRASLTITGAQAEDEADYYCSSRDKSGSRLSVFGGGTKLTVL
Chain of 10E8v4 S100cH (antibody) (VH): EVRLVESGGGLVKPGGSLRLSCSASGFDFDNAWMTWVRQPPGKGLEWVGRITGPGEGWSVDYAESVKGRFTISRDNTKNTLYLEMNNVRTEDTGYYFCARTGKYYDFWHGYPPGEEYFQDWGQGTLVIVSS
Chain of 10E8v4 S100cH (antibody) (VL): as the sequence (VL) above
Chain of 10E8v4 S100cF (antibody) (VH): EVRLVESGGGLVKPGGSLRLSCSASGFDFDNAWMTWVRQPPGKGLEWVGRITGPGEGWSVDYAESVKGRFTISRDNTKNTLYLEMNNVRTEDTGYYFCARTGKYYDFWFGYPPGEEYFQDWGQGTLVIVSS
Chain of 10E8v4 S100cF (antibody) (VL): as the sequence (VL) above

Substance | IC50, pseudovirus neutralization [1] | IC50, pseudovirus neutralization [2] | IC50, pseudovirus neutralization [3] | IC50, pseudovirus neutralization [4] [µg/mL] | IC50, pseudovirus neutralization [5] [µg/mL] | IC50, pseudovirus neutralization [6] [µg/mL] | IC80, pseudovirus neutralization [6] [µg/mL] | IC50, pseudovirus neutralization [7] [µg/mL] | IC80, pseudovirus neutralization [7] [µg/mL] | IC50, pseudovirus neutralization [8] [µg/mL] | IC80, pseudovirus neutralization [8] [µg/mL] | IC50, pseudovirus neutralization [9] [µg/mL] | IC80, pseudovirus neutralization [9] [µg/mL] | IC50, pseudovirus neutralization [10] [µg/mL] | IC80, pseudovirus neutralization [10] [µg/mL] | IC50, pseudovirus neutralization [11] [µg/mL] | IC50, pseudovirus neutralization [15] [µg/mL] | IC50, pseudovirus neutralization [16] [µg/mL] | IC50, pseudovirus neutralization [17] [µg/mL] | IC50, pseudovirus neutralization [18] [µg/mL] | other results
10E8 antibody | 0.032 µg/mL and 0.023 µg/mL | 1.19 µg/mL and 0.995 µg/mL | 2.09 µg/mL and 0.997 µg/mL | > 50 | > 50 |  |  |  |  |  |  |  |  |  |  |  |  |  |  |  | 
10E8v4 S100cF (antibody) |  |  |  |  |  | 0.002 | 0.017 | 0.001 | 0.008 | 0.097 | 0.306 | 0.073 | 0.482 | 0.003 | 0.02 | 0.001 |  |  |  |  | IC80, pseudovirus neutralization [11]: 0.001 µg/mL; IC50, pseudovirus neutralization [12]: 0.147 µg/mL; IC80, pseudovirus neutralization [12]: 0.696 µg/mL; IC50, pseudovirus neutralization [13]: > 50 µg/mL; IC80, pseudovirus neutralization [13]: > 50 µg/mL; IC50, pseudovirus neutralization [14]: > 50 µg/mL; IC80, pseudovirus neutralization [14]: > 50 µg/mL
10E8v4 S100cH (antibody) |  |  |  |  |  | 0.091 | 0.488 | 0.103 | 0.643 | 2.24 | 6.79 | 2.59 | 10.9 | 0.141 | 0.966 | 0.011 |  |  |  |  | IC80, pseudovirus neutralization [11]: 0.046 µg/mL; IC50, pseudovirus neutralization [12]: 3.4 µg/mL; IC80, pseudovirus neutralization [12]: 14 µg/mL; IC50, pseudovirus neutralization [13]: > 50 µg/mL; IC80, pseudovirus neutralization [13]: > 50 µg/mL; IC50, pseudovirus neutralization [14]: > 50 µg/mL; IC80, pseudovirus neutralization [14]: > 50 µg/mL
10E8v4 S100cW (antibody) | 0.003 µg/mL | 0.107 µg/mL | 0.085 µg/mL | > 50 | > 50 | 0.001 | 0.007 | 0.001 | 0.006 | 0.041 | 0.149 | 0.042 | 0.331 | 0.001 | 0.012 | 0.001 | 0.002 | 0.031 | 0.004 |  | IC50, pseudovirus neutralization [12]: 0.088 µg/mL; IC80, pseudovirus neutralization [12]: 0.388 µg/mL; IC80, pseudovirus neutralization [1]: 0.013 µg/mL; IC80, pseudovirus neutralization [15]: 0.01 µg/mL; IC80, pseudovirus neutralization [2]: 0.295 µg/mL; IC80, pseudovirus neutralization [16]: 0.26 µg/mL; IC80, pseudovirus neutralization [17]: 0.025 µg/mL; IC80, pseudovirus neutralization [18]: 0.001 µg/mL; IC80, pseudovirus neutralization [3]: 0.459 µg/mL; IC80, pseudovirus neutralization [4]: > 50 µg/mL; IC80, pseudovirus neutralization [5]: > 50 µg/mL
10E8v4 VL Y32A (antibody) | 3.53 µg/mL | > 50 µg/mL | > 50 µg/mL | > 50 | > 50 |  |  |  |  |  |  |  |  |  |  |  | > 50 | > 50 | 11.7 | 0.409 | 
10E8v4 VL Y32D (antibody) | > 50 µg/mL | > 50 µg/mL | > 50 µg/mL | > 50 | > 50 |  |  |  |  |  |  |  |  |  |  |  | > 50 | > 50 | > 50 | 1.55 | 
10E8v4 VL Y32E (antibody) | 19 µg/mL | > 50 µg/mL | > 50 µg/mL | > 50 | > 50 |  |  |  |  |  |  |  |  |  |  |  | > 50 | > 50 | > 50 | 0.215 | 
10E8v4 VL Y32F (antibody) | 0.031 µg/mL | 3.2 µg/mL | 2.25 µg/mL | > 50 | > 50 |  |  |  |  |  |  |  |  |  |  |  | 0.08 | 2 | 0.102 | 0.017 | 
10E8v4 VL Y32H (antibody) | 0.788 µg/mL | 29.9 µg/mL | > 50 µg/mL | > 50 | > 50 |  |  |  |  |  |  |  |  |  |  |  | 7.4 | 8.76 | 1.39 | 0.032 | 
10E8v4 VL Y32I (antibody) | 21.4 µg/mL | > 50 µg/mL | > 50 µg/mL | > 50 | > 50 |  |  |  |  |  |  |  |  |  |  |  | > 50 | > 50 | > 50 | 1.3 | 
